# According to patent US20190315842A1 (DUKE UNIVERSITY, published 2019):
# Where no end group is shown, it is not given here. The star is where a group is joined. Biotin = O=C1N[C@H]2[C@H](CS[C@H]2CCCCC(=O)*)N1
# T1: 15-mer peptide GPPPPIDNGDITSFP (SEQ ID NO: 114) (human)
# T1 construct: Immobilized for SPR; also called parent peptide
# T1 peptide: GPPPPIDNGDITSFP
# T2: GPPPPIDNGDITSFP(GGGK-biotin)
# T2 construct: also called biotinylated 15-mer peptide; biotinylated 19-mer
# T2 peptide: GPPPPIDNGDITSFPGGGK(Biotin)
# T3: sclerosis autoantigen (Scl-70) (UniProt P11387 2-765, limits assumed)
# T3 sequence (looked up): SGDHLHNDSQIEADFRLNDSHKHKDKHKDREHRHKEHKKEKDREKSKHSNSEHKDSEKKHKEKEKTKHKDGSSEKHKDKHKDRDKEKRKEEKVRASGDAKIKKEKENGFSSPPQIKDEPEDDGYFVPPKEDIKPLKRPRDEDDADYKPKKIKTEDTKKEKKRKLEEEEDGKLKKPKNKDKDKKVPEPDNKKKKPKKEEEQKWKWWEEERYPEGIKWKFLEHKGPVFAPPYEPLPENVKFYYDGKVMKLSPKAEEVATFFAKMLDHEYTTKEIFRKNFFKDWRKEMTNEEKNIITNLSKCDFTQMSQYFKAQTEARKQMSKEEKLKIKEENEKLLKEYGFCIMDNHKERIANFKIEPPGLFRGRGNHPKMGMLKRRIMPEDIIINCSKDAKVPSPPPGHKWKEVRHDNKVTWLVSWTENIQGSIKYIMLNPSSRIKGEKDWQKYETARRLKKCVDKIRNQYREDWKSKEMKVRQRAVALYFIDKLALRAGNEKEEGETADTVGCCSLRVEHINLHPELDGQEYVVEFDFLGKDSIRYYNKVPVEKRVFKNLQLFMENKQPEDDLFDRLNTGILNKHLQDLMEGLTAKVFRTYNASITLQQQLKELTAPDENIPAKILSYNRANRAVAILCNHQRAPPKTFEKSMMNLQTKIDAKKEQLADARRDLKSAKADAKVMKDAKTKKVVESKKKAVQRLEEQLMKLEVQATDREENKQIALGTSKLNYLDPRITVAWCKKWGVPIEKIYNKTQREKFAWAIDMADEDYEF
# What was measured:
# [1] = molecular target: systemic lupus erythematosus autoantigen SSA; experiment: AtheNA Multi-Lyte ANA, Ab at 50 ug/ml;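 further: monoclonal antibodies probed against a nuclear autoantigen panel (SSA, SSB, Sm, RNP, Scl-70, Jo-1, dsDNA, CentB, histones), with anti-HIV 4E10 and palivizumab as control antibodies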
# Description: (§1) All 7 mAbs were tested against the AtheNA Multi-Lyte panel of autoantigens. The AtheNA Multi-Lyte ANA test for a panel of nuclear antigens: systemic lupus erythematosus autoantigens SSA and SSB, sphingomyelin (Sm), ribonucleoprotein (RNP), sclerosis autoantigen (Scl-70), histidine-tRNA ligase (Jo-1), double-stranded DNA (dsDNA), centromere B (CentB), and histones. 4e10 (Anti HIV, NIH AIDS Reagent Program) and SYNAGIS® (anti-RSV monoclonal antibody palivizumab; “Synagis”) were used a controls.
# Sm (sphingomyelin) [2] = molecular target: T4, Sm (sphingomyelin); experiment: AtheNA Multi-Lyte ANA, Ab at 50 ug/ml;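 further: monoclonal antibodies probed against a nuclear autoantigen panel (SSA, SSB, Sm, RNP, Scl-70, Jo-1, dsDNA, CentB, histones), with anti-HIV 4E10 and palivizumab as control antibodies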
# T4 construct: in an ANA panel of nuclear antigens Sm is usually the Smith ribonucleoprotein antigen; Kept, but see recheck
# Description: as §1
# ribonucleoprotein (RNP) [3] = experiment: AtheNA Multi-Lyte ANA, Ab at 50 ug/ml;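 further: monoclonal antibodies probed against a nuclear autoantigen panel (SSA, SSB, Sm, RNP, Scl-70, Jo-1, dsDNA, CentB, histones), with anti-HIV 4E10 and palivizumab as control antibodies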
# Description: as §1
# [4] = molecular target: systemic lupus erythematosus autoantigen SSA; experiment: AtheNA Multi-Lyte ANA, Ab at 12.5 ug/ml;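 further: monoclonal antibodies screened for binding to a panel of nuclear autoantigens (SSA, SSB, Sm, RNP, Scl-70, Jo-1, dsDNA, CentB, histones), with anti-HIV and anti-RSV antibodies as controls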
# Description: as §1
# Sm (sphingomyelin) [5] = molecular target: T4, Sm (sphingomyelin); experiment: AtheNA Multi-Lyte ANA, Ab at 12.5 ug/ml;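 further: monoclonal antibodies screened for binding to a panel of nuclear autoantigens (SSA, SSB, Sm, RNP, Scl-70, Jo-1, dsDNA, CentB, histones), with anti-HIV and anti-RSV antibodies as controls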
# Description: as §1
# ribonucleoprotein (RNP) [6] = experiment: AtheNA Multi-Lyte ANA, Ab at 12.5 ug/ml;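 further: monoclonal antibodies screened for binding to a panel of nuclear autoantigens (SSA, SSB, Sm, RNP, Scl-70, Jo-1, dsDNA, CentB, histones), with anti-HIV and anti-RSV antibodies as controls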
# Description: as §1
# [7] = molecular target: systemic lupus erythematosus autoantigen SSA; experiment: AtheNA Multi-Lyte ANA, Ab at 6.25 ug/ml;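 further: monoclonal antibodies screened for reactivity against a panel of nuclear autoantigens, with an anti-HIV and an anti-RSV monoclonal antibody serving as controls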
# Description: as §1
# Sm (sphingomyelin) [8] = molecular target: T4, Sm (sphingomyelin); experiment: AtheNA Multi-Lyte ANA, Ab at 6.25 ug/ml;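 further: monoclonal antibodies screened for reactivity against a panel of nuclear autoantigens, with an anti-HIV and an anti-RSV monoclonal antibody serving as controls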
# Description: as §1
# ribonucleoprotein (RNP) [9] = experiment: AtheNA Multi-Lyte ANA, Ab at 6.25 ug/ml;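 further: monoclonal antibodies screened for reactivity against a panel of nuclear autoantigens, with an anti-HIV and an anti-RSV monoclonal antibody serving as controls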
# Description: as §1
# [10] = molecular target: T1, 15-mer peptide GPPPPIDNGDITSFP (SEQ ID …); experiment: assay and antigen not given; Example 10, epitope mapping on the 15-mer peptide
# [11] = molecular target: T2, GPPPPIDNGDITSFP(GGGK-biotin); experiment: ELISA: biotinylated peptide captured on immobilized Neutravidin, antibody at 0.5 µg/ml, anti-human IgG-HRP/ABTS, OD 405 nm
# Description: After washing, recombinant human monoclonal antibodies were added to the wells at 0.5 μg/ml and incubated for 2 hr at room temperature. The wells were washed and incubated with goat anti-human IgG-gamma horseradish peroxidase conjugate at a 1:1000 dilution. After further washing, bound antibody was detected with 2,2′-azino-bis (3-ethylbenzthiazoline-6-sulfonic acid)(ABTS)/hydrogen peroxide and the absorbance measured at 405 nm.
# [12] = molecular target: systemic lupus erythematosus autoantigen SSA; experiment: AtheNA Multi-Lyte ANA, Ab at 25 ug/ml
# Description: as §1
# Sm (sphingomyelin) [13] = molecular target: T4, Sm (sphingomyelin); experiment: AtheNA Multi-Lyte ANA, Ab at 25 ug/ml
# Description: as §1
# ribonucleoprotein (RNP) [14] = experiment: AtheNA Multi-Lyte ANA, Ab at 25 ug/ml
# Description: as §1
# [15] = molecular target: T3, sclerosis autoantigen (Scl-70); experiment: AtheNA Multi-Lyte ANA, Ab at 25 ug/ml
# Description: as §1
# [16] = molecular target: T3, sclerosis autoantigen (Scl-70); experiment: AtheNA Multi-Lyte ANA, Ab at 50 ug/ml;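 further: monoclonal antibodies probed against a nuclear autoantigen panel (SSA, SSB, Sm, RNP, Scl-70, Jo-1, dsDNA, CentB, histones), with anti-HIV 4E10 and palivizumab as control antibodies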
# Description: as §1
# [17] = molecular target: T3, sclerosis autoantigen (Scl-70); experiment: AtheNA Multi-Lyte ANA, Ab at 12.5 ug/ml;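 further: monoclonal antibodies screened for binding to a panel of nuclear autoantigens (SSA, SSB, Sm, RNP, Scl-70, Jo-1, dsDNA, CentB, histones), with anti-HIV and anti-RSV antibodies as controls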
# Description: as §1
# [18] = molecular target: T3, sclerosis autoantigen (Scl-70); experiment: AtheNA Multi-Lyte ANA, Ab at 6.25 ug/ml;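 further: monoclonal antibodies screened for reactivity against a panel of nuclear autoantigens, with an anti-HIV and an anti-RSV monoclonal antibody serving as controls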
# Description: as §1
# [19] = molecular target: T5, reduced form of Complement Factor H (CFH), treated with TCEP (human, UniProt P08603 19-1231, disulfides reduced with 10 mM TCEP); experiment: immunoblot, SDS-PAGE under reducing conditions, antibody at 0.5 µg/ml, anti-human IgG-HRP, chemiluminescence; lane numbers as in Table 10
# T5 construct: also called reduced CFH; reduced form of CFH
# T5 sequence (P08603 19-1231 limits assumed): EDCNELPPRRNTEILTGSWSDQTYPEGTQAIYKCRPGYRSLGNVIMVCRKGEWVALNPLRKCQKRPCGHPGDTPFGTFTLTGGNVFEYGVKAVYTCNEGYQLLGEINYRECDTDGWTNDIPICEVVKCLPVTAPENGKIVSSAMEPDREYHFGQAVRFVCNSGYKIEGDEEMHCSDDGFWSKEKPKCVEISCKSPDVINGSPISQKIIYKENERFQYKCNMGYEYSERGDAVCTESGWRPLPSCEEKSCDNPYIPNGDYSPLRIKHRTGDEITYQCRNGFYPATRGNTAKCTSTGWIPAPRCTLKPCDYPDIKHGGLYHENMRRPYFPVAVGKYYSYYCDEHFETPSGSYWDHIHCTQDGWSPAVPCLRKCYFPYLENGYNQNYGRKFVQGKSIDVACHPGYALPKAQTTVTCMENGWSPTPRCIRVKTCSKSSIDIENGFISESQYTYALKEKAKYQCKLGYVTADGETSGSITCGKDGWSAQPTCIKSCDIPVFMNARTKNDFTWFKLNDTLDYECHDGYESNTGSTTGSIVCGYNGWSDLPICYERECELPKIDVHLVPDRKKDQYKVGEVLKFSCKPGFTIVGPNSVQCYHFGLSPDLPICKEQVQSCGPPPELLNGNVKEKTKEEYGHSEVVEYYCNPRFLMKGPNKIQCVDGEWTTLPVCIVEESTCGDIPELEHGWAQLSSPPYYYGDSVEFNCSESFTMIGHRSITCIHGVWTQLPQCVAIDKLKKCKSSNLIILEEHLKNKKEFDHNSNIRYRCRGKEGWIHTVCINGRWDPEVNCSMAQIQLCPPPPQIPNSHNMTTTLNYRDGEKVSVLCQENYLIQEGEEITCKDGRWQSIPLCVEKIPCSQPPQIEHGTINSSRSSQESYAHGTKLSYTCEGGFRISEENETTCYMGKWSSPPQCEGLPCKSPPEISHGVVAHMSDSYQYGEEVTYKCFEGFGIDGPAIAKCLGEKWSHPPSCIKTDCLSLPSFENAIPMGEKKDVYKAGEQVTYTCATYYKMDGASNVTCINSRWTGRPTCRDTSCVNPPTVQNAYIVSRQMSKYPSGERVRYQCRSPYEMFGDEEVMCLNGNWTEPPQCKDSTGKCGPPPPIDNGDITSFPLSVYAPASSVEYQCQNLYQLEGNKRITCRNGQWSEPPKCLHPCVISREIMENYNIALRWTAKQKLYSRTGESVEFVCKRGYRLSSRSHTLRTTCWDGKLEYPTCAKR
# [20] = molecular target: T6, Complement Factor H (CFH) protein, full-length (human, UniProt P08603 19-1231); experiment: immunoblot, SDS-PAGE under non-reducing conditions, antibody at 0.5 µg/ml, anti-human IgG-HRP, chemiluminescence; lane numbers as in Table 10
# T6 construct: also called full-length CFH; native CFH
# T6 sequence (P08603 19-1231 limits assumed): as above
AtheNA signal [1],AtheNA signal (Sm (sphingomyelin) [2]),AtheNA signal (ribonucleoprotein (RNP) [3]),AtheNA signal [4],AtheNA signal (Sm (sphingomyelin) [5]),AtheNA signal (ribonucleoprotein (RNP) [6]),AtheNA signal [7],AtheNA signal (Sm (sphingomyelin) [8]),AtheNA signal (ribonucleoprotein (RNP) [9]),EC50 [10],binding result [11],Binder,further results
,,,,,,,,,,binds,"7967/6002 (antibody, V domains shown, also called clone 8; H007967/K006002) VH: LVESGGGVVQPGKSLRLSCVASGFSFSTYGMHWVRQAPGKGLEWVAVMSFDGKTKYYADSVKGRFTISRDNPKNTLYLQMNSLRSEDTAVYYCAKGGAAAAVFDSWGPGILLTVSS VL: MTQSPNSLAVSLGGRATINCKASQSILYRSNNKNYLAWYQHKAGQPPKLLIYWASTRESGVPERFSGSGSRTDFTLTINGLQAEDVAVYYCQQYYNPPWTFGQGTKVEIK",
,,,,,,,,,,binds,"7965/6000 (antibody, V domains shown, also called clone 12; H007965/K006000) VH: LVESGGGVVQPGKSLRLSCVASGFTFSSYGMHWVRQAPGKGLEWVAVMSFDGKTKYYADSVKGRFTISRDNPKNTLYLQMNSLRSEDTAVYYCAKGGAAAAVFDSWGQGILLTVSS VL: MTQSPNSLAVSLGGRATINCKTSQSILYRSNNKNYLAWYQHKSGQPPKLLIYWASTRESGVPDRFSGSGSRTDFTLTISGLQAEDVAVYYCQQYYNPPWTFGQGTKVEIK",
,,,,,,,,,,binds,"7971/6005 (antibody, V domains shown, also called clone 14; H007971/K006005) VH: LVESGGGVVQPGRSLRLSCAASGFTFSRYGMHWVRQAPGKGLEWVAVMSYDGSTKYYADSVKGRFAISRDNPKNTLFLQMNSLRPDDTAVYYCAKGGAAAAVMDVWGKGTTVTVSS VL: MTQSPDSLTVSLGERATISCKSSQRLLYSSNNKNYLAWYQQKPGQPPKLLMYWASTRESGVPDRFSGSGSGTDFSLTISSLQAEDVAVYYCQQYYNPPWTFGQGTKVEVK",
,,,,,,,,,,binds,"7983/6019 (antibody, V domains shown, also called clone 15; H007983/K006019) VH: EVQLVESGGGVVQPGRSLRLSCAASGFTFNRFGMHWVRQRQVPGKGLEWVAVISYDDNTKYYADSVKGRFTISRDNNKSTLYLQMSSLRVEDTAVYFCAKGSTAAAVLDYWGQGTLVTVSS VL: DIVMTQSPDSLTLSLGERATINCKSSQSLFYRSNNKSYLAWYQQKPGQPPKLLIYWASVRESGVPDRFTGSGSVTDFTLTISSLRAEDVAVYYCQQYFTTPLTFGGGTKVAIK",

# Further lines, the binder ahead of its results:
Binder,AtheNA signal [1],AtheNA signal (Sm (sphingomyelin) [2]),AtheNA signal (ribonucleoprotein (RNP) [3]),AtheNA signal [4],AtheNA signal (Sm (sphingomyelin) [5]),AtheNA signal (ribonucleoprotein (RNP) [6]),AtheNA signal [7],AtheNA signal (Sm (sphingomyelin) [8]),AtheNA signal (ribonucleoprotein (RNP) [9]),EC50 [10],binding result [11],further results
"Ab7955 (antibody, V domains shown, Recombinant human antibody with IgG1 heavy chain backbone and kappa light chain constant; also called mAb 7955; clone 19) VH: LVESGGGVVRPGRSLRLSCVASGFTFNAYGMHWVRQGPGKGLEWLAVISYEGKTVYYADSVKDRFTISRDNSRNTVSLHLNNLRGEDTAVYYCAKGSASAAVLQHWGQGTLVSVTS VL: MTQSPGSLAVSLGSRATINCKSSRSLLYRSNNKNYLAWYQQKPGQSPRLLIYWASSRESGVPDRFSGGGSGTSFTLTISSLQAEDVAVYYCQQYFNPPWTFGQGTKVEIK",92,10,13,56,7,8,32,5,4,0.00648 mg/L,binds,
"7958/5992 (antibody, V domains shown, also called clone 4; H007958/K005992) VH: LVESGGGVVPPGKSLRLSCAASGFTFSLYGIHWVRQAPGKGLEWVAVISYDGNTKYYTDSVKGRFTISRDNAKNTIYLQMNSLRLDDTAVYYCAKGAANSATFDFWGRGTMVTVSS VL: MTQSPDSLTLSLGERATINCRSSRTVLYRSNNKNYLAWYQHKPGQPPKLLMSWASTRETGVPDRFSGSGSGTHFTLTITSLQPEDVAVYYCQQYYSPPWTFGQGTKVEIR",,,,,,,,,,,binds,
"7963/5998 (antibody, V domains shown, also called clone 5; H007963/K005998) VH: LVESGGGVVPPGKSLRLSCAASGFTFSLYGIHWVRQAPGKGLEWVAVISYDGNTKYYTDSVKGRFTISRDNAKNTIYLQMNSLRLDDTAVYYCAKGAANSATFDFWGRGTMVTVSS VL: MTQSPDSLTLSLGERATINCRSSRTVLYRSNNKNYLAWYQHKPGQPPKLLMSWASTRETGVPDRFSGSGSGTHFTLTITSLQPEDVAVYYCQQYYSPPWTFGQGTKVEIR",,,,,,,,,,,binds,
"7982/6018 (antibody, V domains shown, also called clone 6; H007982/K006018) VH: LVESGGGVVPPGKSLRLSCAASGFTFSLYGIHWVRQAPGKGLEWVAVISYDGNTKYYTDSVKGRFTISRDNAKNTIYLQMNSLRLDDTAVYYCAKGAANSATFDFWGRGTMVTVSS VL: MTQSPDSLTLSLGERATINCRSSRTVLYRSNNKNYLAWYQHKPGQPPKLLMSWASTRETGVPDRFSGSGSGTHFTLTITSLQPEDVAVYYCQQYYSPPWTFGQGTKVEIR",,,,,,,,,,,binds,
"Ab7961/293i (antibody, IgG1, V domains shown, Recombinant human antibody with IgG1 heavy chain backbone and kappa light chain constant; they begin at LVESGGG and MTQSP; also called mAb 7961; clone 24) VH: LVESGGGVVQPGKSLRLSCVASGFTFSSYGMHWVRQAPGKGLEWVAVMSFDGKTKYYADSVKGRFTISRDNPKNTLYLQMNSLRSEDTAVYYCAKGGAAAAVFDSWGQGILLTVSS VL: MTQSPNSLAVSLGGRATINCKTSQSILYRSNNKNYLAWYQHKSGQPPKLLIYWASTRESGVPDRFSGSGSRTDFTLTISGLQAEDVAVYYCQQYYNPPWTFGQGTKVEIK",40,6,8,24,5,6,18,4,7,0.0144 mg/L,binds,AtheNA signal [12]: 31; AtheNA signal (Sm (sphingomyelin) [13]): 5; AtheNA signal (ribonucleoprotein (RNP) [14]): 8; AtheNA signal [15]: 3; AtheNA signal [16]: 3; AtheNA signal [17]: 3; AtheNA signal [18]: 2; binding result [19]: binds; binding result [20]: binds
"Ab7964 (antibody, IgG1, V domains shown, Recombinant human antibody with IgG1 heavy chain backbone and kappa light chain constant; they begin at LVESGGG and MTQSP; also called Ab7964/293i; mAb 7964) VH: LVESGGGVVQPGRSLRLSCAASGVTFSRYGMHWVRQAPGKGLEWVAVISYDEKTKYYADSVKGRFTISRDNSKNTLFLHMNRLRYEDTAVYYCAKGASSGAYFDYWGQGTLVTVSS VL: not shown",162,137,62,132,67,51,101,47,44,0.0152 mg/L,binds,AtheNA signal [12]: 168; AtheNA signal (Sm (sphingomyelin) [13]): 96; AtheNA signal (ribonucleoprotein (RNP) [14]): 56; binding result [19]: binds; binding result [20]: binds
